Measured values as given in paper PMC8797470, “Disruption of the pentraxin 3/CD44 interaction as an efficient therapy for triple‐negative breast cancers” (Clinical and Translational Medicine, 2022).

Assays:
CD44 = molecular target: T1, CD44 (Homo sapiens, UniProt P16070); assay: Ligand binding ELISA on immobilised CD44; conditions: HRP-conjugated recombinant proteins; wells coated with 10 μg/ml CD44; 2 h; OD 450 nm
T1 construct: purchased Sino Biological Inc. 12211-H08H
Procedure: Plate wells (9018; Corning Costar) were coated with 10 μg/ml of CD44 (12211‐H08H; Sino Biological Inc.) in PBS (pH 7.2) and then blocking for 1 h with the blocking buffer including 3% milk in PBS. For the stability binding experiments, the PTX3‐devired biotinylated peptides were pre‐incubated in serum for 1, 2, 4 or 6 h. For the binding experiments, the horseradish peroxidase (HRP)‐conjugated recombinant PTX3, PTX3/N, PTX3/C and PTX3NA or PTX3‐devired biotinylated peptides AD9, GR9, P2rdAD9 and P12rdGR9 (32310; LEADGENE) was responded in the well for 2 h. For the peptide of competition experiments, the PTX3‐devired biotinylated peptides RI37 and GI40 were diluted at the indicated concentration in PBS. After 2 h, PBS washed three times and then incubated with 5 μg/ml HRP‐conjugated PTX3 in PBS for 1 h at room temperature (RT). For the antibody competition experiments, Ab‐10 and Ab‐49 were incubated with 5 μg/ml HRP‐conjugated PTX3 in PBS for 2 h at RT. After incubation, the mixtures was responded in the well for 1 h at RT and then PBS washed three times, tetramethyl benzidine (TMB) was used to detect the bound HRP conjugate. After 15 min, the peroxidase reaction was stopped by adding 0.1 M H2SO4. Next, ELISA plate reader was used to detect the optical densities at 450 nm.

MDA-MB-231 cells = assay: Transwell migration and Matrigel invasion assays; format: cell-based, human; conditions: treatment in lower well, 18 h
Source text: In migration assay, MDA‐MB‐231 cells seeded in 8.0 μm pore polycarbonate membrane inserts (BD Biosciences) in 24‐well plates. In Matrigel invasion assay, inserts were pre‐coated with an appropriate amount of Matrigel first, and the same number of cells seeded on the Matrigel. After cells adhered on the inserts, serum‐free DMEM medium added in the upper wells. Serum‐free medium containing the treatments of TGF‐β1, PTX3, PTX3NA, PTX3/N, PTX3/C, RI37, GI40, AD9, GR9, IgG1κ, PTX3 Ab‐10 or PTX3 Ab‐49 were then mixed into the lower wells of the 24‐well plates. After incubating for 18 h, cells outside the insert were removed by wiping. The inside the inserts were then stained by 4′,6‐diamidino‐2‐phenylindol (DAPI). Fluorescence microscope was used for counting the total number of migrated cells with 200× magnification. Different from the experimental design for the MDA‐MB‐231 cells, the migrated 4T1‐Luc2 cells in the inside of the insert were detected by luciferase activity.

T1 sequence (P16070 21-220 limits assumed): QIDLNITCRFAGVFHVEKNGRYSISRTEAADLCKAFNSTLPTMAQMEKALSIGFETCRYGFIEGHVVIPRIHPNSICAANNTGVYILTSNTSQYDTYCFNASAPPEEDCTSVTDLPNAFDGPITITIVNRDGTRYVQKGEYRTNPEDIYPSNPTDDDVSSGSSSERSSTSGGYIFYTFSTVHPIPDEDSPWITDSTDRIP

B1: PTX3/C: recombinant truncated mutant, C‐terminus of PTX3, amino acids 180–381 (protein)
chain: ETAILFPMRSKKIFGSVHPVRPMRLESFSACIWVKATDVLNKTILFSYGTKRNPYEIQLYLSYQSIVFVVGGEENKLVAEAMVSLGRWTHLCGTWNSEEGLTSLWVNGELAATTVEMATGHIVPEGGILQIGQEKNGCCVGGGFDETLAFSGRLTGFNIWDSVLSNEEIRETGGAESCHIRGNIVGWGVTEIQPHGGAQYVS
modifications: left off: HRP conjugate, end not stated, kept
binding to immobilised CD44 (CD44): could bind
migration and invasion, protein alone (MDA-MB-231 cells): mimics PTX3 to induce
